# In article PMC11908824, “UGT74B5-mediated glucosylation at ortho hydroxyl groups of benzoic acid derivatives regulating plant immunity to anthracnose in tea plants” (Horticulture Research, 2025):
# How the values were obtained:
# [1] = substrate: O=C(O)c1ccccc1O; assay: LC-MS glucosyltransferase assay; type: biochemical, Camellia sinensis; details: 2.5 mM UDP-glucose, optimal conditions (pH 8.0-8.5, 30°C), 0-300 μM substrate
# [2] = substrate: O=C(O)c1c(O)cccc1O; assay: LC-MS glucosyltransferase assay; type: biochemical, Camellia sinensis; details: 2.5 mM UDP-glucose, optimal conditions (pH 8.0-8.5, 30°C), 0-300 μM substrate
protein,measurement,setting,value
"CsUGT74B5 (rCsUGT74B5) (Camellia sinensis) (protein, full CDS in pMAL-c2X (N-terminal MBP fusion, tag cleavage not mentioned), expressed in E. coli Novablue (DE3), amylose resin purified) MEQRNHGGHVVVLPYPSQGHINPLLQFAKRLASKGVKATLATTHYTVKSICVPNIAVEPISDGFDNGGFTQARAEDVYLKSLRENGSRTLSQLIEKHKNTNFPINCVVYDSFFPWALDVAKTHGIYGAPFFTNSATVCAIFCHVHHGLVKLPVKVEELPLVLPGIPPLNLVDLPSFVQAPESYPAYLAMKLSQYSNLDKADWVFGNTFEELEGEAVKNVLELWPGKMIGPMVPSAYLDGRIEEDKGYGASLWKPLSSDCAKWLEAKPSQSVVYVSFGSMVSLTEEQMEEMAWGLKGSNLDFIWVVRESEITKLPSEFTNSTAQEKGLIVTWCNQLEMLAHQAIGCFVTHCGWNSTLEGLSLGVPMVGVPKWTDQLTDAKFIEEIWGVGFRAKEDEKGVVRREELMGCLKEVMEGERSVEIRKNCCKWKELAKEAISEGGSSDKSIDEFVEQLKSGNEKGVVKYLTNGNGHY",Km,[1],42.01 µM
same,Km,[2],15.26 µM
